From article PMC11655355 (Nature, 2024) come the findings set out here.

The target in experiment [1] is RCD1–SRO–TAF4 (RST) domain from RCD1, RCD1-RST_(499–572) (UniProt Q8RY59). The experiment is described as follows: ITC.
Experiment [2] addresses T1, RCD1–SRO–TAF4 (RST) domain from RCD1, RCD1-RST_(499–572) (UniProt Q8RY59 499-572).
T1 sequence (looked up): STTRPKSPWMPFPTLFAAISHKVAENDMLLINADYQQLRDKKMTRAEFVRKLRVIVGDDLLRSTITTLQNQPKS
The experiment can be described thus: ITC. (In general: In ITC the heat of successive injections is recorded.)

In experiment [1], “D-ANAC013_(254–274), synthetic D-peptide (from UniProt F4IED2 254-274)” displayed a fold difference in Kd between L- and D-enantiomer of 500 fold.
On the same count and under the same terms, under “D-ANAC046_(319–338), synthetic D-peptide (from UniProt Q9SQQ6 319-338)” stands 15 fold; under “D-DREB2A_(255–272), synthetic D-peptide (from UniProt O82132 255-272)”, 72 fold.
In the case of SSDMFDVDELLRDLNGDD (peptide, UniProt O82132 255-272, looked up) [L-DREB2A_(255–272), synthetic peptide], the binding result in experiment [2] is listed as “binds”.
